# From article PMC6959147 (BioMed Research International, 2019)
# Target: T1, recombinant human PD-L1, Fc-tagged (rhPD-L1-Fc) (Homo sapiens, UniProt Q9NZQ7)
# T1 construct: human PD-L1 (programmed death ligand-1) extracellular domain, linked to the Fc region of human IgG1; soluble disulfide-linked homodimer; also called dimeric rhPD-L1-Fc; dimeric PD-L1; source: bought: R&D Systems
# Assay: flow cytometry on cells; scFv displayed on yeast, titration with rhPD-L1-Fc (10 pM to 10 nM plus 30 nM), PBS 0.5% BSA, room temperature; binding MFI normalised on scFv expression; apparent KD = half-saturating antigen concentration
# Conditions: one partner purified
# T1 sequence (Q9NZQ7 19-238): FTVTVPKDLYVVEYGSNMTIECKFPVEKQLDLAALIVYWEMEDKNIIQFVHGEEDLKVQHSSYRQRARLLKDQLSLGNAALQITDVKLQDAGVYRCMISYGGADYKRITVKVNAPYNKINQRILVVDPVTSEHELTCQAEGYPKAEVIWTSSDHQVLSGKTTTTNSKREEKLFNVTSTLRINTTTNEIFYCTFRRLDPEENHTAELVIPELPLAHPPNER
row,Binder,Kd [nM]
1,"scFv-yeast clone 3_3 (scFv, V domains shown, as the stretch N-terminal of the HCDR3 of m4; HCDR3 of clone 3_3 (same as 10_4); as the stretch C-terminal of the HCDR3 of m4; also called 10_4; not shown: HA, C-terminal, kept) VH: not shown VL: NFMLTQPHSVSESPGKTITISCTRSSGSIAGNYVQWYQQRPGSAPIIVIYEDNQRPSGVPDRFSGSIDSSSNSASLTISRLKTEDEADYYCQSYEASNVVFGGGTKLTVL",< 1
2,"scFv-yeast clone 3_17 (scFv, V domains shown, as the stretch N-terminal of the HCDR3 of m4; HCDR3 of clone 3_17; as the stretch C-terminal of the HCDR3 of m4; not shown: HA, C-terminal, kept) VH: not shown VL: NFMLTQPHSVSESPGKTITISCTRSSGSIAGNYVQWYQQRPGSAPIIVIYEDNQRPSGVPDRFSGSIDSSSNSASLTISRLKTEDEADYYCQSYEASNVVFGGGTKLTVL",< 1
3,"scFv-yeast clone 10_12 (scFv, V domains shown, as the stretch N-terminal of the HCDR3 of m4; HCDR3 of clone 10_12; as the stretch C-terminal of the HCDR3 of m4; not shown: HA, C-terminal, kept) VH: not shown VL: NFMLTQPHSVSESPGKTITISCTRSSGSIAGNYVQWYQQRPGSAPIIVIYEDNQRPSGVPDRFSGSIDSSSNSASLTISRLKTEDEADYYCQSYEASNVVFGGGTKLTVL",< 1

# Further lines, results first:
row,Kd [nM],Binder
1,< 1,"scFv-yeast clone 10_3 (scFv, V domains shown, as the stretch N-terminal of the HCDR3 of m4; HCDR3 of clone 10_3; as the stretch C-terminal of the HCDR3 of m4; not shown: HA, C-terminal, kept) VH: not shown VL: NFMLTQPHSVSESPGKTITISCTRSSGSIAGNYVQWYQQRPGSAPIIVIYEDNQRPSGVPDRFSGSIDSSSNSASLTISRLKTEDEADYYCQSYEASNVVFGGGTKLTVL"
2,< 1,"scFv-yeast clone 3_7 (scFv, V domains shown, as the stretch N-terminal of the HCDR3 of m4; HCDR3 of clone 3_7; as the stretch C-terminal of the HCDR3 of m4; not shown: HA, C-terminal, kept) VH: not shown VL: NFMLTQPHSVSESPGKTITISCTRSSGSIAGNYVQWYQQRPGSAPIIVIYEDNQRPSGVPDRFSGSIDSSSNSASLTISRLKTEDEADYYCQSYEASNVVFGGGTKLTVL"
3,< 1,"scFv-yeast clone 3_14 (scFv, V domains shown, as the stretch N-terminal of the HCDR3 of m4; HCDR3 of clone 3_14 (same as 10_2); as the stretch C-terminal of the HCDR3 of m4; also called 10_2; not shown: HA, C-terminal, kept) VH: not shown VL: NFMLTQPHSVSESPGKTITISCTRSSGSIAGNYVQWYQQRPGSAPIIVIYEDNQRPSGVPDRFSGSIDSSSNSASLTISRLKTEDEADYYCQSYEASNVVFGGGTKLTVL"

# Target: T1, recombinant human PD-L1, Fc-tagged …
# Assay: SPR; Biacore X100, 25°C, HBS-EP pH 7.4; dimeric rhPD-L1-Fc (300 RU) immobilised by amine coupling on CM5, IgG as analyte (12.5-0.39 nM wild type, 6.25-0.39 nM mutated mAbs); 1:1 Langmuir; apparent constants (KD2) of bivalent binding
# Conditions: both partners purified
Kd [nM],koff [s⁻¹],kon [M⁻¹ s⁻¹],Binder
0.139,0.000148,1.1e+06,"mAb 10_3 (IgG4 converted from scFv 10_3) (antibody, V domains shown, as the VH stretch before the HCDR3 of m14; HCDR3 of 10_3; T to S at position 1, Y to F at position 9 and D to G at position 10 against the wild type; as the VH stretch after the HCDR3 of m14; as the light chain of m14; IgG4; also called IgG 10_3; antibody 10_3; source: EBNA 293 cells, cotransfected (pEU8.2 and pEU4.2), purified from the medium (protein A); copies: 2 + 2) VH: not shown VL: NFMLTQPHSVSESPGKTITISCTRSSGSIAGNYVQWYQQRPGSAPIIVIYEDNQRPSGVPDRFSGSIDSSSNSASLTISRLKTEDEADYYCQSYEASNVVFGGGTKLTVL"
0.287,0.000287,1.03e+06,"mAb 3_7 (IgG4 converted from scFv 3_7) (antibody, V domains shown, as the VH stretch before the HCDR3 of m14; HCDR3 of 3_7; T to S at position 1 and D to Y at position 10 against the wild type; as the VH stretch after the HCDR3 of m14; as the light chain of m14; IgG4; also called IgG 3_7; source: EBNA 293 cells, cotransfected (pEU8.2 and pEU4.2), purified from the medium (protein A); copies: 2 + 2) VH: not shown VL: NFMLTQPHSVSESPGKTITISCTRSSGSIAGNYVQWYQQRPGSAPIIVIYEDNQRPSGVPDRFSGSIDSSSNSASLTISRLKTEDEADYYCQSYEASNVVFGGGTKLTVL"
0.172,0.000176,1.05e+06,"mAb 3_14 (IgG4 converted from scFv 3_14) (antibody, V domains shown, as the VH stretch before the HCDR3 of m14; HCDR3 of 3_14; T to S at position 1 and D to G at position 10 against the wild type; as the VH stretch after the HCDR3 of m14; as the light chain of m14; IgG4; also called IgG 3_14; source: EBNA 293 cells, cotransfected (pEU8.2 and pEU4.2), purified from the medium (protein A); copies: 2 + 2) VH: not shown VL: NFMLTQPHSVSESPGKTITISCTRSSGSIAGNYVQWYQQRPGSAPIIVIYEDNQRPSGVPDRFSGSIDSSSNSASLTISRLKTEDEADYYCQSYEASNVVFGGGTKLTVL"
0.174,0.000193,1.14e+06,"mAb 3_3 (IgG4 converted from scFv 3_3) (antibody, V domains shown, as the VH stretch before the HCDR3 of m14; HCDR3 of 3_3; T to S at position 1 and D to N at position 10 against the wild type; as the VH stretch after the HCDR3 of m14; as the light chain of m14; IgG4; also called IgG 3_3; source: EBNA 293 cells, cotransfected (pEU8.2 and pEU4.2), purified from the medium (protein A); copies: 2 + 2) VH: not shown VL: NFMLTQPHSVSESPGKTITISCTRSSGSIAGNYVQWYQQRPGSAPIIVIYEDNQRPSGVPDRFSGSIDSSSNSASLTISRLKTEDEADYYCQSYEASNVVFGGGTKLTVL"
0.165,0.000159,1.01e+06,"mAb 3_17 (IgG4 converted from scFv 3_17) (antibody, V domains shown, as the VH stretch before the HCDR3 of m14; HCDR3 of 3_17; T to S at position 1 and D to A at position 10 against the wild type; as the VH stretch after the HCDR3 of m14; as the light chain of m14; IgG4; also called IgG 3_17; source: EBNA 293 cells, cotransfected (pEU8.2 and pEU4.2), purified from the medium (protein A); copies: 2 + 2) VH: not shown VL: NFMLTQPHSVSESPGKTITISCTRSSGSIAGNYVQWYQQRPGSAPIIVIYEDNQRPSGVPDRFSGSIDSSSNSASLTISRLKTEDEADYYCQSYEASNVVFGGGTKLTVL"
